B1: Fab 7109 (Fab, V domains shown)
VH: EVQLVESGGGLVQPGGSLRLSCAASGFSLSTSGVGVSWIRQAPGKGLEWVSYISGSGDTTYYADSVKGRFTISRDNSKNTLYLQLNSLRAEDTAVYYCAREGSDAVLGDWFAYWGQGTLVTVSS
VL: DIQLTQSPSSLSASVGDRVTITCRASQGISSYLAWYQQKPGKAPKLLIYDASNLETGVPSRFSGSGSGTDFTLTISSLQPEDFATYYCQQYYSTPLTFGQGTKVEIKR
notes: Fab from E. coli; also called VH52/VL52
B2: Fab 4079 (Fab, V domains shown)
VH: EVQLVESGGGLVQPGGSLRLSCAASGFTFTGYWIHWVRQAPGKGLEWVGRIRSKTDGYTTEYAAPVKGRFTISRDNSKNTLYLQLNSLRAEDTAVYYCARLGGHWYFDVWGQGTLVTVSS
VL: B1 VL with G28S, S30G, S31R, A34N, Q89E, Y91P, Y92L, S93E, T94L, L96R
notes: Fab from E. coli; also called VH5/VL5
B3: Fab 7097 (Fab, V domains shown)
VH: EVQLVESGGGLVQPGGSLRLSCAASGYSISSGHHWDWIRQAPGKGLEWVSYISGAGDTTYYADSVKGRFTISRDNSKNTLYLQLNSLRAEDTAVYYCAREGSDAVLGDWFAYWGQGTLVTVSS
VL: B1 VL
notes: Fab from E. coli; also called VH49/VL49
B4: Fab 7159 (Fab, V domains shown)
VH: EVQLVESGGGLVQPGGSLRLSCAASGFSLSTSGVGVGWIRQAPGKGLEWIGDIYHSGSTYYNPSLKSRVTISRDNSKNTLYLQLNSLRAEDTAVYYCAREGSTAVLGDWFAYWGQGTLVTVSS
VL: B1 VL with G28S, A34N, D50A, N53T, E55Q, T56S
notes: Fab from E. coli; also called VH58/VL58
B5: Fab 7135 (Fab, V domains shown)
VH: B1 VH with S32G, S37G, Y52S, D58G, T59S, A105T
VL: B1 VL with I29V, S93T
notes: Fab from E. coli; also called VH57/VL57
B6: Fab 7163 (Fab, V domains shown)
VH: B4 VH with G37T, G46S, N62S, T103D, L106A, A111D
VL: B1 VL with G28S, A34N, D50A, N53T, E55Q, T56S
notes: Fab from E. coli; also called VH59/VL59
B7: Fab 7133 (Fab, V domains shown)
VH: B1 VH with S37A, Y52S, S56Y, D58G, T80R, A105T
VL: B1 VL with I29V, S93T
notes: Fab from E. coli; also called VH56/VL56
B8: Fab 7131 (Fab, V domains shown)
VH: B1 VH with S32G, S37G, S56A, T59S, A105T
VL: B1 VL with I29V, S93T
notes: Fab from E. coli; also called VH55/VL55
B9: Fab 7120 (Fab, V domains shown)
VH: B1 VH with S37G, S56D, D104T, A105T
VL: B1 VL
notes: Fab from E. coli; also called VH53/VL53
B10: Fab 7128 (Fab, V domains shown)
VH: B1 VH with S32G, S37A, S56D, D58G, A105T
VL: B1 VL with Y91S
notes: Fab from E. coli; also called VH54/VL54
B11: Fab 7166 (Fab, V domains shown)
VH: B4 VH with G35A, G37A, S58N, E100G, T103D, A104T, L106V
VL: B1 VL with G28S, A34N, D50A, N53T, E55Q, T56S
notes: Fab from E. coli; also called VH60/VL60
B12: Fab 4134 (Fab, V domains shown)
VH: EVQLVESGGGLVQPGGSLRLSCAASGYSISSGHHWGWIRQAPGKGLEWVSGISGYGDTTYYADSVKGRFTISRDNSKNTLYLQLNSLRAEDTAVYYCARDPYSSGSGYFDYWGQGTLVTVSS
VL: DIQLTQSPSSLSASVGDRVTITCRASQGISSALGWYQQKPGKAPKLLIYAASSLQSGVPSRFSGSGSGTDFTLTISSLQPEDFATYYCQQSYYTWTFGQGTKVEIKR
notes: Fab from E. coli; also called VH6/VL6
B13: Fab 4137 (Fab, V domains shown)
VH: EVQLVESGGGLVQPGGSLRLSCAASGYSITSGYYWGWIRQAPGKGLEWVSGISGSGSSTYYADSVKGRFTISRDNSKNTLYLQLNSLRAEDTAVYYCARGTYSFDVWGQGTLVTVSS
VL: B12 VL with A32D, G34A, S53T, S91Y, Y93S, T94Y, W95I
notes: Fab from E. coli; also called VH7/VL7
B14: Fab 4140 (Fab, V domains shown)
VH: EVQLVESGGGLVQPGGSLRLSCAASGYSISSGYHWNWIRQAPGKGLEWVSSISGSGGSTYYADSVKGRFTISRDNSKNTLYLQLNSLRAEDTAVYYCARDPNYYSSGSYFDYWGQGTLVTVSS
VL: B12 VL with S30G, A32F, A50D, S53N, L54R, Q55A, S56T, V58I, Y93S, T94L
notes: Fab from E. coli; also called VH9/VL9
B15: Fab 5341 (Fab, V domains shown)
VH: B3 VH with S30T, D36A, Y51A, A55D, D57S, D103T, L106T
VL: DIQLTQSPSSLSASVGDRVTITCSASSRVGYVHWYQQKPGKAPKLLIYDASSLESGVPSRFSGSGSGTDFTLTISSLQPEDFATYYCQQGYYTWTFGQGTKVEIKR
notes: Fab from E. coli; also called VH20/VL20
B16: Fab 5348 (Fab, V domains shown)
VH: EVQLVESGGGLVQPGGSLRLSCAASGFSLSTGGVAVGWIRQAPGKGLEWVSGISGDGGTTYYADSVKGRFTISRDNSKNTLYLQLNSLRAEDTAVYYCTREDYGPHAYWGQGTLVTVSS
VL: DIQLTQSPSSLSASVGDRVTITCRASQSITTYLNWYQQKPGKAPKLLIYDASNLETGVPSRFSGSGSGTDFTLTISSLQPEDFATYYCQQSYSYSTFGQGTKVEIKR
notes: Fab from E. coli; also called VH23/VL23
B17: Fab 4139 (Fab, V domains shown)
VH: EVQLVESGGGLVQPGGSLRLSCAASGYTFTGYAIHWVRQAPGKGLEWVSAISGDGGSTYYADSVKGRFTISRDNSKNTLYLQLNSLRAEDTAVYYCARGYRGYFDYWGQGTLVTVSS
VL: DIQLTQSPSSLSASVGDRVTITCRASESVTSTYLAWYQQKPGKAPKLLIYDASNLETGVPSRFSGSGSGTDFTLTISSLQPEDFATYYCQQYSDWPPTFGQGTKVEIKR
notes: Fab from E. coli; also called VH8/VL8

Numbering of substitutions follows the chain as printed.

This test addresses T1, CD137-hisFc fusion protein (Sino Biological Cat 10041-H03H) (human, UniProt Q07011 24-186).
T1 construct: Bought; also called recombinant human CD137 (fused with human Fc and His tag); not shown: His tag and human Fc
The test is described as follows: BLI Octet, Fab. On the technique in general: In BLI a coated tip is dipped into the sample, and binding shifts an interference pattern.
On to B1, for which binding was put at a Kd of 32 nM; the koff (in general, the rate constant with which the complex falls apart) amounted to 0.00555 s⁻¹; the kon (in general, a measure of how fast the partners come together) was 173000 M⁻¹ s⁻¹.
Consider B2, for which the affinity, expressed as Kd, was 31.5 nM; the koff came to 0.00219 s⁻¹; the kon was 69300 M⁻¹ s⁻¹.
Taken in the same sequence, the figures for B3 were 24.3 nM, 0.0132 s⁻¹ and 542000 M⁻¹ s⁻¹.
For B4 the same measures were 37.9 nM, 0.00403 s⁻¹ and 106000 M⁻¹ s⁻¹.
For B5 the same measures were 31.7 nM, 0.00322 s⁻¹ and 102000 M⁻¹ s⁻¹.
Turning to B6, the Kd (commonly a measure of binding affinity in units of concentration) amounted to 12.6 nM, the koff amounted to 0.00378 s⁻¹ and the kon was determined as 299000 M⁻¹ s⁻¹.
For B7 the same measures were 40.3 nM, 0.00405 s⁻¹ and 101000 M⁻¹ s⁻¹.
For B8 the same measures were 30.4 nM, 0.0081 s⁻¹ and 266000 M⁻¹ s⁻¹.
Taken in the same sequence, the figures for B9 were 34.5 nM, 0.00911 s⁻¹ and 264000 M⁻¹ s⁻¹.
In turn, B10 yielded a Kd of 39.7 nM, a koff of 0.0123 s⁻¹ and a kon of 309000 M⁻¹ s⁻¹.
For the molecule B11, the Kd came to 12.4 nM, the koff turned out to be 0.00429 s⁻¹ and the kon was 345000 M⁻¹ s⁻¹.
The molecule B12 had a Kd of 13 nM, a koff of 0.000769 s⁻¹ and a kon of 59300 M⁻¹ s⁻¹.
For B13 the same measures were under 0.001 nM, under 1e-07 s⁻¹ and 85600 M⁻¹ s⁻¹.
In turn, B14 showed a Kd of under 0.001 nM, a koff of under 1e-07 s⁻¹ and a kon of 25700 M⁻¹ s⁻¹.
In turn, B15 gave a Kd of 29.3 nM, a koff of 0.00188 s⁻¹ and a kon of 64200 M⁻¹ s⁻¹.
B16 yielded a Kd of 10.2 nM, a koff of 0.0133 s⁻¹ and a kon of 1.31e+06 M⁻¹ s⁻¹.
B17 returned a Kd of 1.65 nM, a koff of 8.17e-05 s⁻¹ and a kon of 49600 M⁻¹ s⁻¹.

(Values after US20190055314A1 (ADAGENE, published 2019).)
